Results from article PMC9727766 (bioRxiv, 2022).

How the values were obtained:
[1] = biological target: SARS-CoV-2 S protein, C-terminally truncated, Omicron BA.1, on 293T cells (SARS-CoV-2 Omicron BA.1 (B.1.1.529), …, strain); assay: flow cytometry on cells
[2] = biological target: SARS-CoV-2 S protein, C-terminally truncated, Omicron BA.4/BA.5, on 293T cells (SARS-CoV-2 Omicron BA.4/BA.5, strain); assay: flow cytometry on cells

B1: fp.006 monoclonal antibody (IgG) (antibody, V domains shown)
VH: EVQLVESGGGVVQPGGSLRLSCAASGFNFNNYALHWVRQAPGKGLEWVAIISYEARNKKYGVSVMGRFSISRDNSKSIMYLEMNSLRVEDTGVYYCARDLFLSDYDRSGYDPTRGGFDHWGQGTLVTVSS
VL: EIVMTQSPATLSVSPGERATLSCRASQSVSSSLAWYQHRFGQAPRLLISGASTRATGIPGRFSGSGSGTEFTLTISSLQSEDVAVYYCQQYGDWPLVTFGGGTKVEIK
- fold increase of binding with soluble ACE2 [1]: 5.3 fold
- fold increase of binding with soluble ACE2 [2]: 8.2 fold
